Results: PMC11849937, “Atractylenolide I inhibits angiogenesis and reverses sunitinib resistance in clear cell renal cell carcinoma through ATP6V0D2-mediated autophagic degradation of EPAS1/HIF2α” (Autophagy, 2024)

Molecular target: T1, His-VPS41 (recombinant, bacterial) (UniProt P49754 1-854)
T1 construct: VPS41; The only His-VPS41 plasmid that the methods name is in the vector pGMLV; source: BL21 (Rosetta) bacterial cells, purified (His beads)
T1 sequence (looked up): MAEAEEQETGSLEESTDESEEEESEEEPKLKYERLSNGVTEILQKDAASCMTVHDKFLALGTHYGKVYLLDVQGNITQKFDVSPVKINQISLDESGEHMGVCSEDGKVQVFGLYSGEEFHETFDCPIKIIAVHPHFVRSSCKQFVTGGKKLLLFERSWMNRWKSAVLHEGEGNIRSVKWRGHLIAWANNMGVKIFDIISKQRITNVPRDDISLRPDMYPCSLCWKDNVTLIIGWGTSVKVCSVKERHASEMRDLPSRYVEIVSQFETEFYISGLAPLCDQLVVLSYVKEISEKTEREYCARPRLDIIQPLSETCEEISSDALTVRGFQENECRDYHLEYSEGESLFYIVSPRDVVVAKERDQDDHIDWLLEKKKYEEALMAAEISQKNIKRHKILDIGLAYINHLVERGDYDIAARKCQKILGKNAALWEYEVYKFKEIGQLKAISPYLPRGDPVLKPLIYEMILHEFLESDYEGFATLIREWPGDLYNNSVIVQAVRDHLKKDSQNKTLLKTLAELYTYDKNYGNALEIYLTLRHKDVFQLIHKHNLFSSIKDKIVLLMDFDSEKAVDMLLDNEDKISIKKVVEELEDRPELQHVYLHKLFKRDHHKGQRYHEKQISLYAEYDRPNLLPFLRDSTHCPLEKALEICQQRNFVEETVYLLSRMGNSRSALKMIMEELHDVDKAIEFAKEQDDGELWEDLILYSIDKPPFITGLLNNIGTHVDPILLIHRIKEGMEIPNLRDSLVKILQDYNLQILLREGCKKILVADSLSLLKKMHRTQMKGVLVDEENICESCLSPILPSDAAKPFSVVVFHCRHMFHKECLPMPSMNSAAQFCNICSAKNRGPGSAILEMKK
Test: pull-down; GST-tagged protein (2.5 ug) immobilised on glutathione-Sepharose beads, incubated with His-RAB7, His-VPS41 or both in affinity-isolation buffer with PMSF; western blot
Details: both partners purified

B1: GST-tagged ATP6V0D2 (natural protein)
chain: not shown
notes: ATP6V0D2, ATPase H+ transporting V0 subunit d2; Construct bought from Tsingke Biotechnology; also called GST-ATP6V0D2; source: BL21 (Rosetta) bacterial cells, purified (glutathione-Sepharose beads)
binding result: binds
